Tests used:
HEK293-F = assay: Luciferase time course after forskolin induction, transient transfection of suspension HEK293-F; type: cell-based, human; details: 20 µM forskolin
Description: The tested promoters were synthesised directly upstream of the ATG of PM-RQ plasmid and the suspension cell lines were transiently transfected with the PM-RQ plasmid.
40 ml of cells were grown in a 250 ml vented Erlenmeyer flask (Sigma-Aldrich CLS431144) at 37° C., 20% O2, 8% CO2 with agitation at 100 rpm. Cells were seeded as described in the manufacturer's instructions (300,000 cells/ml). HEK293-F were obtained from Thermofisher, R79007.
One day before transfection, the cells were counted using a haemocytometer and split to 500,000 cells/ml.
On the day of transfection, the cells are seeded to 1,000,000 cells/ml in 500 μl of appropriate medium (Freestyle 293 expression medium, 12338002) in a 24 well plate. […] of DNA per well was then added to 10 μl of OptiMem medium (Thermofisher; 11058021) and incubated for 5 minutes at room temperature.
Concurrently, 0.625 μl of Max reagent (Thermofisher, 16447100) was made up to 10 μl by addition of OptiMem and incubated for 5 minutes at room temperature. After this incubation, both mixes were added to the same tube and incubated at room temperature for 25-30 minutes. […]
24 hours after transfection, the promoters were induced by addition of […] forskolin and luciferase activity was measured 0, 3, 5 and 24 hours after induction. Luciferase activity was measured as previously described.

CHO-GS-KSV1 cell line = assay: SEAP expression in stably transfected CHO-GS-KSV1, forskolin or NKH477 induction; type: cell-based, chinese hamster; details: stable CHO-GS-KSV1, SEAP, forskolin or NKH477
Description: The forskolin-inducible promoters were then tested in a stably transfected CHO-GS-KSV1 cell line.
• CD-CHO media (Life technologies, CAT #10743029) • Corning 125 mL Polycarbonate Erlenmeyer Flask with Vent Cap (CAT #734-1885). • Gene Pulser® Electroporation Cuvettes, 0.4 cm gap (BioRad, CAT #165-2088) • Gene Pulser Xcell Total System (BioRad, CAT, #1652660) • GS-vector DNA ([…] in 100 μL TE buffer) linearised with Sca1 • Suspension cultures of CHOK1SV GS-KO host cells.
Cell suspensions of 6×10^5 cells per mL were incubated on an orbital shaker set at 8% CO2, 20% O2, 37° C., 85% relative humidity and 140 rpm overnight. 2.86×10^7 cells were centrifuged at 200 g for 3 minutes. Media was then aspirated and cell pellet resuspended in 2 mL fresh CD-CHO media to obtain a concentration of 1.43×10^7 cells per mL. 700 μL of cell suspension was added to each of two electroporation cuvettes each containing […] of linearised DNA in 100 μL of sterile TE buffer (Thermofisher, 12090015). Each cuvette was electroporated, delivering a single pulse of 300V, […] with resistance to infinity. Immediately after delivery of pulse electroplated cells were transferred to Erlenmeyer 125 mL flask containing 20 mL of CD-CHO media pre-warmed to 37° C. Electroporated cells from two cuvettes are combined into a single 125 mL flask to generate one pool of cells. Cells are cultured on an orbital shaker set at 8% CO2, 20% O2, 37° C., 85% relative humidity and 140 rpm. Cells are transferred to fresh CD-CHO media 24 hours after transfection and cell cultures monitored and given fresh CD-CHO media every 2-4 days. Usually after about 10-14 days cell numbers will be high enough to start passaging.
The transfected DNA was the pXC-17.4 expression vector (Lonza Biologics plc) where one of the promoter constructs (or a control promoter (CMV-IE) have been cloned upstream of the secreted alkaline phosphatase (SEAP) gene, which had been cloned into the multiple cloning site within the vector expression cassette. Promoters were closed into the pXC-17.4 vector using Gibson assembly. The pXC-17.4 expression vector is designed for making stable cell lines in the CHO-GSK1SV cell line as it contains the […] gene which has been knocked out of the cell line. Therefore, selection of cells in glutamine drop-out medium will select for cells that have stably integrated the plasmid.
The responsiveness of the RTV-019 promoter to different concentrations of forskolin and […] was tested in the stably transfected CHO-GS-KSV1 cell line. To this end, the stably transfected CHO-GS cells were seeded at 500,000 cells/ml and allowed to grow for 24 hrs. At this point the cells were induced by addition of the respective concentrations of forskolin and NKH477 and SEAP expression was measured as described below after 24 hours.
The promoter activity and inducibility of FMP-02, FORCYB-001, RTV-017, FORCSV-10, FOR-CMC-009, FLP-01 and RTV-019 were also tested in the stably transfected CHO-GS-KSV1 cell line. To this end, the stably transfected CHO-GS cells were seeded at 500,000 cells/ml and allowed to grow for 24 hrs. At this point the cells were exposed to […] forskolin or […] NKH477 for 24 hours. After this point, the SEAP activity in the medium was assessed as described below.
SEAP Reporter Gene Assay, chemiluminescent (Roche, CAT #11 779 842 001) was used to measure SEAP activity as per the manufacturer's protocol. All reagents and samples were fully pre-equilibrated at room temperature. Culture supernatant was collected from the stably transfected CHO-GS at the specific time points (0 h and 24 h). The supernatant was diluted 1:4 in dilution buffer and heat treated at 65° C. for 30 minutes. The heat-treated sample was then centrifuged for 30 s at maximum speed. 50 μl of the heat-treated sample was then added to 5 μl of inactivation buffer and incubated for 5 min at room temperature. 50 μl of substrate reagent was then added and incubated for 10 min at room temperature. […]

B1: RTV-019: synthetic forskolin-inducible promoter, SEQ ID NO: 44; 3× ATF6, 4× AP1(1) and 3× HRE1 TFBS and CMV-MP (nucleic acid)
DNA: TGACGTGCTGATGATGCGTAGCTAGTAGTTGACGTGCTGATGATGCGTAGCTAGTAGTTGACGTGCTGATGATGCGTAGCTAGTAGTTGAGTCAGATGATGCGTAGCTAGTAGTTGAGTCAGATGATGCGTAGCTAGTAGTTGAGTCAGATGATGCGTAGCTAGTAGTTGAGTCAGATGATGCGTAGCTAGTAGTCTGCACGTAGATGATGCGTAGCTAGTAGTCTGCACGTAGATGATGCGTAGCTAGTAGTCTGCACGTAGATGATGCGTAGCTAGTAGTGCAGTTAGCGTAGCTGAGGTACCGTCGACGATATCGGATCCAGGTCTATATAAGCAGAGCTCGTTTAGTGAACCGTCAGATCGCCTAGATACGCCATCCACGCTGTTTTGACCTCCATAGAAGATCGCCACC
modifications: Synp-RTV-019
notes: 3× ATF6, 4× AP1(1) and 3× HRE1 TFBS and CMV-MP
- relative rank of promoter (fold induction/strength) (HEK293-F): strongest
- relative rank of promoter strength (CHO-GS-KSV1 cell line): strongest

From patent publication US20230167458A1, “FORSKOLIN-INDUCIBLE PROMOTERS AND HYPOXIA-INDUCIBLE PROMOTERS” (ASKLEPIOS BIOPHARMACEUTICAL, INC., priority 2020, published 2023)
